Data reported in patent US20220332804A1 (CSL INNOVATION, published 2022).
Where a chain is given by its changes, count along the chain named.

Key:
Test in all cases: SPR, KD relative to WT C2;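 note: biacore SPR at 37 °C, anti-C2 mAbs captured via immobilised goat anti-human IgG, C2 alanine or serine surface mutants as analytes, 1:1 model fitted, double-referenced sensograms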
human C2 N327A = target: T1, human C2 N327A (human, UniProt P06681 21-752)
T1 sequence: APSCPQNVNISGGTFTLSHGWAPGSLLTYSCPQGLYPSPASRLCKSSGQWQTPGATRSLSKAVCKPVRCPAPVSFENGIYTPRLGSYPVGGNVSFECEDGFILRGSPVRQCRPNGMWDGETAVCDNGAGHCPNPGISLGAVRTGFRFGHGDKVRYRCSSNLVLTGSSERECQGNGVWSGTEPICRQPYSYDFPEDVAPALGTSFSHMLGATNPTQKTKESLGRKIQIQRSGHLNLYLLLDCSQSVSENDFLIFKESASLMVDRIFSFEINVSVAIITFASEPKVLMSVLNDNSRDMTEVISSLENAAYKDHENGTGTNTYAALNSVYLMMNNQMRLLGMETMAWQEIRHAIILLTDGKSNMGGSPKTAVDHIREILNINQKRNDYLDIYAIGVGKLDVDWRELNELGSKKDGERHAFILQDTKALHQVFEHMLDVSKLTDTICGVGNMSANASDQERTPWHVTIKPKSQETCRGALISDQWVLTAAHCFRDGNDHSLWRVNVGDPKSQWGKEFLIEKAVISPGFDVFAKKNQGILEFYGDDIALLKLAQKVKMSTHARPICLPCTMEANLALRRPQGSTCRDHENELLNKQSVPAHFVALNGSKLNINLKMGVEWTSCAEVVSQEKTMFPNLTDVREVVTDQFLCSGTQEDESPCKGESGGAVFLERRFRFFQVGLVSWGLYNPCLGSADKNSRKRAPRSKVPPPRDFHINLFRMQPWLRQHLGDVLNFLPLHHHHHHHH

human C2 S428A = target: T2, human C2 S428A (human, UniProt P06681 21-752)
T2 sequence: T1 sequence with A307N, S408A

human C2 H451A = target: T3, human C2 H451A (human, UniProt P06681 21-752)
T3 sequence: T1 sequence with A307N, H431A

human C2 K550A = target: T4, human C2 K550A (human, UniProt P06681 21-752)
T4 sequence: T1 sequence with A307N, K530A

B1: RF16-226 (antibody, human IgG4 S228P, lambda)
heavy: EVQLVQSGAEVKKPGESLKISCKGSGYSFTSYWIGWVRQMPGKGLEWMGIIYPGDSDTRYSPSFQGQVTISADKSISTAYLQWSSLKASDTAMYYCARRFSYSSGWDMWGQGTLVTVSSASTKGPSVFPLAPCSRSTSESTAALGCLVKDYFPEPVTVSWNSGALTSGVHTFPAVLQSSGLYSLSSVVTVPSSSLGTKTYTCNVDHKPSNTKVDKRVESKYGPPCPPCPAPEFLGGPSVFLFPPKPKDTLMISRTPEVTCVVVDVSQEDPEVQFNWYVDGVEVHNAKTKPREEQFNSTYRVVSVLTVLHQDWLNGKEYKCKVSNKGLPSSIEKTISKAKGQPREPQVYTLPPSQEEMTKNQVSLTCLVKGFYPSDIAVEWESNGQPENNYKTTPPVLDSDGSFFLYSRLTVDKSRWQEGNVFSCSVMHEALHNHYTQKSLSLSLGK
light: SYELTQPPSVSVSPGQTARITCSGDALTSKYVAWYQQKSGLAPLLVIYEDTRRPSGIPAKFSGSSSGSVATLTISGAHGDDEADYYCYSTDASGHQRVFGGGTKLTVLSQPKAAPSVTLFPPSSEELQANKATLVCLISDFYPGAVTVAWKADGSPVKAGVETTKPSKQSNNKYAASSYLSLTPEQWKSHRSYSCQVTHEGSTVEKTVAPTECS
notes: pH-dependent anti-C2 antibody from a phage display library; also called WT
Work on B1 yielded a Fold diff (human C2 N327A) of 7 fold, a Fold diff (human C2 S428A) of 2 fold and a Fold diff (human C2 H451A) of 11 fold. For the same binder, the Fold diff (human C2 K550A) was 1 fold.
